From publication PMC7072391

Biological target: tropomyosin receptor kinase A (TrkA) (rat (endogenous in primary septal cholinergic neurons)) (UniProt P35739)
UniProt P35739, sequence (P35739 33-799): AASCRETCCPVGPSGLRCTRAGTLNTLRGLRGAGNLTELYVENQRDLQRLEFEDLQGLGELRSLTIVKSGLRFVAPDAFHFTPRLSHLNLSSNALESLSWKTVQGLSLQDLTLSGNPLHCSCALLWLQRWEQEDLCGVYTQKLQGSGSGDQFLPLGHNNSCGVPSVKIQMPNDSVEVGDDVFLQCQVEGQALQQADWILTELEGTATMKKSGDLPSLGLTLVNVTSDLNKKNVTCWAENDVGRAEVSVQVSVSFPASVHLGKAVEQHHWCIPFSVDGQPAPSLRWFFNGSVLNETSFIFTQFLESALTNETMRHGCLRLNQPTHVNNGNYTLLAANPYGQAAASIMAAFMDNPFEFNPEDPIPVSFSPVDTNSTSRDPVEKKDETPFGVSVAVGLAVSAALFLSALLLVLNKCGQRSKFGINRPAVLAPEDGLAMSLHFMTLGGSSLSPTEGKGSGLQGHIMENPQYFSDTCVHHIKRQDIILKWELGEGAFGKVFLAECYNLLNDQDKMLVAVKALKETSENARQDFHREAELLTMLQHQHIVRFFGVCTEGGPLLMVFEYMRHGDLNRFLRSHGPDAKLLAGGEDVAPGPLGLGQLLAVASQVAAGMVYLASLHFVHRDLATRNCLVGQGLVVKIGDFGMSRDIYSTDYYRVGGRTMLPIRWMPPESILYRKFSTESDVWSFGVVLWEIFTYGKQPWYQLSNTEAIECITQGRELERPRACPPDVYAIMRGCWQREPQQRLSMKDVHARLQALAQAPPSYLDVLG

pTrkA (Y490) level by western blot, cholinergic neurons treated 7′ with 100 ng/mL (3.84 nM) NGF	pTrkA (Y490) level by western blot, cholinergic neurons treated 7′ with 10 μM peptide	Substance
161 % of CTR		Nerve Growth Factor (NGF), murine (from UniProt P01139 122-241) (ligand)
	296 % of CTR	acetylated monomer Ac-hNGF1–14 peptide
	155 % of CTR	hNGF1–15 dimer (peptide)
	153 % of CTR	human NGF 1–14 sequence, monomeric hNGF1–14 peptide
